The chains are these.
B1: 1-phosphatidylinositol 4,5-bisphosphate phosphodiesterase gamma-2, residues 772 to 827; numbered along this chain, P16885 (parent)
chain: RTVKALYDYKAKRSDELSFCRGALIHNVSKEPGGWWKGDYGTRIQQYFPSNYVEDI
B2: E3 ubiquitin-protein ligase NEDD4-like, residues 539 to 589; numbered along this chain, Q96PU5 (parent)
chain: KTSLNPNDLGPLPPGWEERIHLDGRTFYIDHNSKITQWEDPRLQNPAITGP

± gives the uncertainty stated by the source.

The first data set covers variants of B1. Put plainly: abundance fitness (aPCA) (normalised: wild type 0, dead -1); higher = more abundant; growth selection in yeast, the domain comes from the species named. Conditions: Homo sapiens.
In the case of RTVKALYDYKAKRSDELSFCRGALIHNVSKEPGGWWKGDYGTRIQQYFPSNYVEGI [D55G], the abundance fitness was -0.314 ± 0.074.
Still for that read-out and setting: the value for RTVKALYDYKAKRSDELSFCRGALIHNVSKEPGGWWKGDYGTRIQQYFPSNYVECI [D55C] was -0.139 ± 0.049; that for RTVKALYDYKAKRSDELSFCRGALIHNVSKEPGGWWKGDYGTRIQQYFPSNYVEII [D55I] was -0.365 ± 0.29.
On the same count and under the same terms, the value for RTVKALYDYKAKRSDELSFCRGALIHNVSKEPGGWWKGDYGTRIQQYFPSNYVELI [D55L] was -0.448 ± 0.12; that for RTVKALYDYKAKRSDELSFCRGALIHNVSKEPGGWWKGDYGTRIQQYFPSNYVEAI [D55A] was -0.114 ± 0.069; that for RTVKALYDYKAKRSDELSFCRGALIHNVSKEPGGWWKGDYGTRIQQYFPSNYVEHI [D55H] was -0.213 ± 0.1.
Still for that read-out and setting: the same measure for RTVKALYDYKAKRSDELSFCRGALIHNVSKEPGGWWKGDYGTRIQQYFPSNYVEYI [D55Y]: -0.287 ± 0.15; for RTVKALYDYKAKRSDELSFCRGALIHNVSKEPGGWWKGDYGTRIQQYFPSNYVEFI [D55F]: -0.202 ± 0.09.
Regarding RTVKALYDYKAKRSDELSFCRGALIHNVSKEPGGWWKGDYGTRIQQYFPSNYVEMI [D55M], the abundance fitness was 0.086 ± 0.14.
For RTVKALYDYKAKRSDELSFCRGALIHNVSKEPGGWWKGDYGTRIQQYFPSNYVEVI [D55V], the abundance fitness was -0.238 ± 0.06.
Regarding RTVKALYDYKAKRSDELSFCRGALIHNVSKEPGGWWKGDYGTRIQQYFPSNYVEQI [D55Q], the abundance fitness was -0.281 ± 0.12.
Consider RTVKALYDYKAKRSDELSFCRGALIHNVSKEPGGWWKGDYGTRIQQYFPSNYVEEI [D55E], for which the abundance fitness was found to be 0.065 ± 0.089.
In the case of RTVKALYDYKAKRSDELSFCRGALIHNVSKEPGGWWKGDYGTRIQQYFPSNYVESI [D55S], the abundance fitness is -0.216 ± 0.081.
RTVKALYDYKAKRSDELSFCRGALIHNVSKEPGGWWKGDYGTRIQQYFPSNYVENI [D55N]: the abundance fitness is -0.033 ± 0.065.
Take RTVKALYDYKAKRSDELSFCRGALIHNVSKEPGGWWKGDYGTRIQQYFPSNYVEPI [D55P]: the abundance fitness was -0.022 ± 0.092.
In the case of RTVKALYDYKAKRSDELSFCRGALIHNVSKEPGGWWKGDYGTRIQQYFPSNYVRDI [E54R], the abundance fitness is -0.125 ± 0.045.
On the same count and under the same terms, the same measure for RTVKALYDYKAKRSDELSFCRGALIHNVSKEPGGWWKGDYGTRIQQYFPSNYVMDI [E54M]: -0.316 ± 0.17; for RTVKALYDYKAKRSDELSFCRGALIHNVSKEPGGWWKGDYGTRIQQYFPSNYVVDI [E54V]: -0.244 ± 0.061.
Same read-out and setting: the same measure for RTVKALYDYKAKRSDELSFCRGALIHNVSKEPGGWWKGDYGTRIQQYFPSNYVTDI [E54T]: -0.256 ± 0.067.
On the same count and under the same terms, the same measure for RTVKALYDYKAKRSDELSFCRGALIHNVSKEPGGWWKGDYGTRIQQYFPSNYVIDI [E54I]: -0.353 ± 0.14.
Consider RTVKALYDYKAKRSDELSFCRGALIHNVSKEPGGWWKGDYGTRIQQYFPSNYVHDI [E54H], for which the abundance fitness is -0.272 ± 0.082.
As for RTVKALYDYKAKRSDELSFCRGALIHNVSKEPGGWWKGDYGTRIQQYFPSNYVYDI [E54Y], the abundance fitness is -0.38 ± 0.15.
Take RTVKALYDYKAKRSDELSFCRGALIHNVSKEPGGWWKGDYGTRIQQYFPSNYVQDI [E54Q]: the abundance fitness is -0.392 ± 0.12.
Still for that read-out and setting: the value for RTVKALYDYKAKRSDELSFCRGALIHNVSKEPGGWWKGDYGTRIQQYFPSNYVWDI [E54W] was -0.55 ± 0.055.
On the same count and under the same terms, the same measure for RTVKALYDYKAKRSDELSFCRGALIHNVSKEPGGWWKGDYGTRIQQYFPSNYVNDI [E54N]: -0.196 ± 0.17; for RTVKALYDYKAKRSDELSFCRGALIHNVSKEPGGWWKGDYGTRIQQYFPSNYVLDI [E54L]: -0.434 ± 0.05.

In another data set the parent is B2. Described as above. Conditions: Homo sapiens.
For the variant T36C, the abundance fitness amounted to 0.086 ± 0.07.
Still for that read-out and setting: the same measure for T36N: -0.469 ± 0.16; for T36F: -0.261 ± 0.083; for T36H: 0.032 ± 0.1.
Still for that read-out and setting: the same measure for T36A: -0.341 ± 0.045; for H21E: -0.052 ± 0.057.
Same read-out and setting: the same measure for H21G: 0.166 ± 0.046.
H21F: the abundance fitness is -0.439 ± 0.11.
In the case of H21T, the abundance fitness stood at 0.087 ± 0.072.
The same measure, in the same setting: the same measure for H21C: 0.057 ± 0.048.
As to H21M, the abundance fitness is -0.124 ± 0.086.
Regarding P46M, the abundance fitness came to 0.084 ± 0.11.
The same measure, in the same setting: the value for P46A was -0.06 ± 0.048; that for P46H was -0.105 ± 0.096; that for P46S was -0.048 ± 0.054.
Still for that read-out and setting: the same measure for P46L: 0.161 ± 0.065; for N5S: -0.123 ± 0.049.
On the same count and under the same terms, the same measure for N5D: -0.407 ± 0.054; for N5Y: -0.259 ± 0.11; for N5F: -0.135 ± 0.054.
With N5A, the abundance fitness is -0.167 ± 0.052.
The same measure, in the same setting: the same measure for K1N: -0.041 ± 0.12; for K1G: -1.01 ± 0.27; for F27C: -0.056 ± 0.076.
For the variant F27W, the abundance fitness is -0.346 ± 0.059.
Still for that read-out and setting: the value for F27A was -0.112 ± 0.047.
On the same count and under the same terms, the value for F27I was -0.163 ± 0.098; that for F27K was -0.002 ± 0.072.
Take G50E: the abundance fitness is 0.223 ± 0.14.
As for G50Y, the abundance fitness was -0.202 ± 0.17.
As for G50R, the abundance fitness was -0.18 ± 0.055.
On the same count and under the same terms, the same measure for G50L: 0.118 ± 0.08; for G50Q: -0.351 ± 0.2; for G50W: -0.143 ± 0.1.
Same read-out and setting: the same measure for G50T: 0.166 ± 0.17; for K34S: -0.197 ± 0.046; for K34C: -0.223 ± 0.053.
On to K34E, for which the abundance fitness was -0.251 ± 0.059.
For the variant K34I, the abundance fitness is -0.875 ± 0.2.
In the case of K34F, the abundance fitness is -0.513 ± 0.089.
On the same count and under the same terms, the same measure for K34T: -0.218 ± 0.078; for K34N: -0.053 ± 0.095.
Same read-out and setting: the value for T49K was -0.267 ± 0.095; that for T49H was -0.089 ± 0.11; that for T49W was -0.213 ± 0.063.
The same measure, in the same setting: the same measure for T49D: -0.086 ± 0.1.
Turning to N7K, the abundance fitness is -0.063 ± 0.098.
Take N7P: the abundance fitness was -0.05 ± 0.084.
Turning to N7Q, the abundance fitness is -0.137 ± 0.08.
N7H: the abundance fitness was -0.146 ± 0.059.
For the variant R19P, the abundance fitness was -0.969 ± 0.15.
As to R19M, the abundance fitness was -0.233 ± 0.081.
Turning to R19F, the abundance fitness is -0.28 ± 0.088.
On to T2K, for which the abundance fitness was -0.066 ± 0.072.
Take T2H: the abundance fitness is -0.385 ± 0.15.
The same measure, in the same setting: the value for T2V was -0.344 ± 0.058.
As for T2F, the abundance fitness is 0.31 ± 0.09.
As for T2N, the abundance fitness is 0.374 ± 0.11.
As for T2G, the abundance fitness was -0.308 ± 0.056.
For P51E, the abundance fitness is -0.109 ± 0.45.
Same read-out and setting: the same measure for P51V: -0.65 ± 0.45; for G24W: -1.07 ± 0.077; for G24K: -0.53 ± 0.05.
The same measure, in the same setting: the value for E39W was -0.456 ± 0.074; that for E39G was -0.183 ± 0.056.
The same measure, in the same setting: the same measure for E39K: -0.216 ± 0.084; for E39S: -0.1 ± 0.053; for E39R: -0.208 ± 0.049.
E39M: the abundance fitness was -0.245 ± 0.059.
The same measure, in the same setting: the value for I20K was 0.209 ± 0.075; that for I20N was -0.467 ± 0.12; that for I20Q was -0.148 ± 0.11.
With I20G, the abundance fitness was -0.289 ± 0.052.
Same read-out and setting: the same measure for I20L: -0.024 ± 0.062; for H31V: -0.07 ± 0.053; for H31D: -0.601 ± 0.095.
Same read-out and setting: the same measure for H31G: -0.243 ± 0.043; for H31M: 0 ± 0.043; for H31W: -0.428 ± 0.077.
Same read-out and setting: the value for H31Q was -0.224 ± 0.071; that for Q37F was -0.358 ± 0.12; that for Q37H was 0.068 ± 0.11.
In the case of Q37W, the abundance fitness was -0.564 ± 0.065.
Same read-out and setting: the value for Q37D was -0.521 ± 0.089; that for Q37V was -0.397 ± 0.041; that for I29E was -0.105 ± 0.055.
Same read-out and setting: the value for I29T was -0.166 ± 0.059; that for I29V was 0.013 ± 0.051.
Turning to I29M, the abundance fitness is -0.141 ± 0.075.
Same read-out and setting: the same measure for I29N: -0.378 ± 0.11; for I29S: -0.318 ± 0.056; for L9F: -0.271 ± 0.31.
Still for that read-out and setting: the value for P41M was -0.367 ± 0.098; that for P41H was -1.08 ± 0.26; that for P41T was -0.875 ± 0.079.
For P41E, the abundance fitness was -0.718 ± 0.082.
In the case of P41Q, the abundance fitness is -1.14 ± 0.13.
Consider P41G, for which the abundance fitness is -0.742 ± 0.049.
For the variant S33H, the abundance fitness amounted to 0.098 ± 0.079.
Regarding S33L, the abundance fitness was -0.188 ± 0.053.
On the same count and under the same terms, the same measure for S33K: 0.05 ± 0.069; for S33W: -0.802 ± 0.083.
As to S33T, the abundance fitness is 0.066 ± 0.061.
Regarding D40E, the abundance fitness was -0.587 ± 0.069.
For D40K, the abundance fitness was -0.585 ± 0.1.
Take D40C: the abundance fitness was -0.639 ± 0.051.
Same read-out and setting: the same measure for D40S: -0.492 ± 0.058.

Values taken from the Human Domainome abundance scans (Beltran et al. 2025).
